Measurements as given in paper PMC9087378 (Immunity, 2021).
Where no end group is shown, it is not given here. The star is where a group is joined. Biotin = O=C1N[C@H]2[C@H](CS[C@H]2CCCCC(=O)*)N1

T1: peptide 21 (PfCSP residues 101-115) (Plasmodium falciparum)
T1 chain: NPDPNANPNVDPNAN

T2: Biotinylated junctional peptide NPDP19 (Plasmodium falciparum NF54/3D7)
T2 chain: Biotin-KQPADGNPDPNANPNVDPN

T3: peptide 21, biotinylated (Plasmodium falciparum NF54/3D7, also: biotin, position not given here)
T3 chain: NPDPNANPNVDPNAN

T4: peptide NANP5, biotinylated (Plasmodium falciparum, biotin (position not given))
T4 chain: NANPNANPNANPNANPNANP


How the values were obtained:
[1] = biological target: T1, peptide 21 (PfCSP residues 101-115); test: crystal structure
[2] = biological target: T2, Biotinylated junctional peptide NPDP19; test: BLI
[3] = biological target: T2, Biotinylated junctional peptide NPDP19; test: AlphaScreen or HTRF
peptide 21, biotinylated = biological target: T3, peptide 21, biotinylated; test: BLI
[4] = biological target: T4, peptide NANP5, biotinylated; test: BLI

Row | Binder | binding result [1] | binding result [3] | also measured
1 | iGL-CIS43.D3 Fab (Fab, V domains shown) VH: QVHLVQSGAEVKKPGASVKVSCKASGYTFTRYAIHWVRQAPGQRLEWMGWIKGGNGNTRYSQKFQDRVTITRDTSASTAYMELSSLRSEDTAVYYCALLTVITPDDAFDIWGQGTMVTVSS VL: not shown | binds | – | Kd [2]: 1.01 nM
2 | iGL-CIS43-HL.K28.m43.151 Fab (Fab, V domains shown) VH: QVHLVQSGAEVKKPGASVKVSCKASGYTFTSYAIHWVRQAPGQRLEWMGWIKGGNGNTRYSQKFQDRVTITRDTSASTAYMELSSLRSEDTAVYYCALLTVITPDDAFDIWGQGTMVTVSS VL: not shown | binds | – | –
3 | iGL-CIS43-HL.K28.m42.127 Fab (Fab, V domains shown) VH: QVQLVQSGAEVKKPGASVKVSCKASGYTFTSYAIHWVRQAPGQRLEWMGWIKAGNGNTRYSQKFQDRVTITRDTSASTAYMELSSLRSEDTAVYYCALLTVITPDDTFDIWGQGTMVTVSS VL: not shown | binds | – | –
4 | iGL_Core8 with the reversion I34M in the heavy chain (antibody, V domains shown) VH: QVQLVQSGAEVKKPGASVKVSCKASGYTFTSYAMHWVRQAPGQRLEWMGWIKAGNGNTRYSQKFQGRVTITRDTSASTAYMELSSLRSEDTAVYYCALLTVITPDDAFDIWGQGTMVTVSS VL: not shown | – | binds | –
5 | iGL_Core8 with the reversion R58K in the heavy chain (antibody, V domains shown) VH: QVQLVQSGAEVKKPGASVKVSCKASGYTFTSYAIHWVRQAPGQRLEWMGWIKAGNGNTKYSQKFQGRVTITRDTSASTAYMELSSLRSEDTAVYYCALLTVITPDDAFDIWGQGTMVTVSS VL: not shown | – | binds | –
6 | iGL_Core8 with the reversion I98V in the heavy chain (antibody, V domains shown) VH: QVQLVQSGAEVKKPGASVKVSCKASGYTFTSYAIHWVRQAPGQRLEWMGWIKAGNGNTRYSQKFQGRVTITRDTSASTAYMELSSLRSEDTAVYYCALLTVVTPDDAFDIWGQGTMVTVSS VL: not shown | – | binds | –
7 | iGL_Core8 with the reversion S94T in the light chain (antibody, V domains shown) VH: QVQLVQSGAEVKKPGASVKVSCKASGYTFTSYAIHWVRQAPGQRLEWMGWIKAGNGNTRYSQKFQGRVTITRDTSASTAYMELSSLRSEDTAVYYCALLTVITPDDAFDIWGQGTMVTVSS VL: not shown | – | binds | –
8 | iGL_Core8 with the reversion K52N in the heavy chain (antibody, V domains shown) VH: QVQLVQSGAEVKKPGASVKVSCKASGYTFTSYAIHWVRQAPGQRLEWMGWINAGNGNTRYSQKFQGRVTITRDTSASTAYMELSSLRSEDTAVYYCALLTVITPDDAFDIWGQGTMVTVSS VL: not shown | – | binds | –
9 | mature CIS43 Fab (Fab, V domains shown) VH: QVQLVQSGAEVKKPGASVKVSCKASGYTFTSYAIHWVRQAPGQRLEWMGWIKAGNGNTRYSQKFQDRVTITRDTSTTTAYMELSSLRSEDTAVYYCALLTVLTPDDAFDIWGQGTMVTVSS VL: not shown | – | – | binding result (peptide 21, biotinylated): binds; binding result [4]: binds
